From publication PMC314469, “Protein Interaction Networks by Proteome Peptide Scanning” (PLoS Biology, 2004)

Experiments:
[1] = molecular target: endophilin SH3 (SH3G2_HUMAN), Q99962; assay: SPOT array
[2] = molecular target: T1, amphyphisin SH3 (AMPH_HUMAN), P49418; assay: SPOT array
T1 chain: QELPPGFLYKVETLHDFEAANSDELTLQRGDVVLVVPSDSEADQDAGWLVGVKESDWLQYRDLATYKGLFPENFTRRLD

LPQWPRRPGRRWPA [Q9Y6F2 30-43]
normalised SPOT signal, Boehringer light units (BLU); mean over the file's lines of this peptide [1]: 7880 | normalised SPOT signal, Boehringer light units (BLU); mean over the file's lines of this peptide [2]: 820

LLPFPLRPPSPHSP [Q9HAF8 97-111]
normalised SPOT signal, Boehringer light units (BLU); mean over the file's lines of this peptide [1]: 9850 | normalised SPOT signal, Boehringer light units (BLU); mean over the file's lines of this peptide [2]: 178

LPEELPRPRRPPPE [P22460 81-94]
normalised SPOT signal, Boehringer light units (BLU); mean over the file's lines of this peptide [1]: 150 | normalised SPOT signal, Boehringer light units (BLU); mean over the file's lines of this peptide [2]: 102

APPQIRRPNREVRP [Q9BW62 109-122]
normalised SPOT signal, Boehringer light units (BLU); mean over the file's lines of this peptide [1]: 638 | normalised SPOT signal, Boehringer light units (BLU); mean over the file's lines of this peptide [2]: 3240

LPVSLTRPPKLVLH [Q9Y2E6 378-391]
normalised SPOT signal, Boehringer light units (BLU); mean over the file's lines of this peptide [1]: 272 | normalised SPOT signal, Boehringer light units (BLU); mean over the file's lines of this peptide [2]: 121

LNSSFSRPDRPASV [P18627 187-200]
normalised SPOT signal, Boehringer light units (BLU); mean over the file's lines of this peptide [1]: 123 | normalised SPOT signal, Boehringer light units (BLU); mean over the file's lines of this peptide [2]: 4090

LPLPPPRPPLLSAR [Q9P0P4 137-151]
normalised SPOT signal, Boehringer light units (BLU); mean over the file's lines of this peptide [1]: 8510 | normalised SPOT signal, Boehringer light units (BLU); mean over the file's lines of this peptide [2]: 2320

LLYLPLKPPNMFPS [Q9H799 457-471]
normalised SPOT signal, Boehringer light units (BLU); mean over the file's lines of this peptide [1]: 13.3 | normalised SPOT signal, Boehringer light units (BLU); mean over the file's lines of this peptide [2]: 28.2

LPARPRRPTPTMVP [Q13545 30-43]
normalised SPOT signal, Boehringer light units (BLU); mean over the file's lines of this peptide [1]: 6910 | normalised SPOT signal, Boehringer light units (BLU); mean over the file's lines of this peptide [2]: 10700

APPRLARPPRFYEA [Q9HAH7 279-292]
normalised SPOT signal, Boehringer light units (BLU); mean over the file's lines of this peptide [1]: 205 | normalised SPOT signal, Boehringer light units (BLU); mean over the file's lines of this peptide [2]: 702

LPRSPPRPPRLWSF [Q9UKB5 52-66]
normalised SPOT signal, Boehringer light units (BLU); mean over the file's lines of this peptide [1]: 24000 | normalised SPOT signal, Boehringer light units (BLU); mean over the file's lines of this peptide [2]: 15300

LMIHPPRPPKVLGL [P39191 481-494]
normalised SPOT signal, Boehringer light units (BLU); mean over the file's lines of this peptide [1]: 1020 | normalised SPOT signal, Boehringer light units (BLU); mean over the file's lines of this peptide [2]: 450

LPLPPARPPVLHSS [O95098 58-72]
normalised SPOT signal, Boehringer light units (BLU); mean over the file's lines of this peptide [1]: 3620 | normalised SPOT signal, Boehringer light units (BLU); mean over the file's lines of this peptide [2]: 1580

LQFRIRRPRPPARG [Q96QS4 5-18]
normalised SPOT signal, Boehringer light units (BLU); mean over the file's lines of this peptide [1]: 48.5 | normalised SPOT signal, Boehringer light units (BLU); mean over the file's lines of this peptide [2]: 84.3

LMIIIARPARLLES [Q9BYE8 416-429]
normalised SPOT signal, Boehringer light units (BLU); mean over the file's lines of this peptide [1]: 167 | normalised SPOT signal, Boehringer light units (BLU); mean over the file's lines of this peptide [2]: 335

LPPLPHRPPQNPFV [P42694 1701-1715]
normalised SPOT signal, Boehringer light units (BLU); mean over the file's lines of this peptide [1]: 79 | normalised SPOT signal, Boehringer light units (BLU); mean over the file's lines of this peptide [2]: 261

LPLPFSRPQKIYHF [O95047 163-176]
normalised SPOT signal, Boehringer light units (BLU); mean over the file's lines of this peptide [1]: 680 | normalised SPOT signal, Boehringer light units (BLU); mean over the file's lines of this peptide [2]: 428

LPPLPKRPALEKTN [Q9NR56 294-307]
normalised SPOT signal, Boehringer light units (BLU); mean over the file's lines of this peptide [1]: 2280 | normalised SPOT signal, Boehringer light units (BLU); mean over the file's lines of this peptide [2]: 160

LNKYLSRPKRFEVA [Q9Y648 264-277]
normalised SPOT signal, Boehringer light units (BLU); mean over the file's lines of this peptide [1]: 212 | normalised SPOT signal, Boehringer light units (BLU); mean over the file's lines of this peptide [2]: 71.8

LPGEPRRPAEIYHS [Q9P006 57-70]
normalised SPOT signal, Boehringer light units (BLU); mean over the file's lines of this peptide [1]: 44.5 | normalised SPOT signal, Boehringer light units (BLU); mean over the file's lines of this peptide [2]: 19.2

LPPKPARPPAVSPA [O60885 879-893]
normalised SPOT signal, Boehringer light units (BLU); mean over the file's lines of this peptide [1]: 4260 | normalised SPOT signal, Boehringer light units (BLU); mean over the file's lines of this peptide [2]: 215

LPIAFIRPFREHHI [Q9UKL1 106-119]
normalised SPOT signal, Boehringer light units (BLU); mean over the file's lines of this peptide [1]: 1060 | normalised SPOT signal, Boehringer light units (BLU); mean over the file's lines of this peptide [2]: 6760

LPKGLGRPGKGHYW [Q12946 84-97]
normalised SPOT signal, Boehringer light units (BLU); mean over the file's lines of this peptide [1]: 104 | normalised SPOT signal, Boehringer light units (BLU); mean over the file's lines of this peptide [2]: 207

LNRGPSRPRRQAGR [Q9NQA3 32-45]
normalised SPOT signal, Boehringer light units (BLU); mean over the file's lines of this peptide [1]: 207 | normalised SPOT signal, Boehringer light units (BLU); mean over the file's lines of this peptide [2]: 6720

LLMVPRRPGYGTMG [Q96JZ0 14-27]
normalised SPOT signal, Boehringer light units (BLU); mean over the file's lines of this peptide [1]: 1280 | normalised SPOT signal, Boehringer light units (BLU); mean over the file's lines of this peptide [2]: 816

LPPDIERPYKAEPL [Q9Y4U3 288-301]
normalised SPOT signal, Boehringer light units (BLU); mean over the file's lines of this peptide [1]: 95.9 | normalised SPOT signal, Boehringer light units (BLU); mean over the file's lines of this peptide [2]: 75.1

LLPALRRPSRASSA [O95327 190-203]
normalised SPOT signal, Boehringer light units (BLU); mean over the file's lines of this peptide [1]: 3500 | normalised SPOT signal, Boehringer light units (BLU); mean over the file's lines of this peptide [2]: 5020

LPENFRRPQTDQAV [Q9H8X4 102-115]
normalised SPOT signal, Boehringer light units (BLU); mean over the file's lines of this peptide [1]: 40.7 | normalised SPOT signal, Boehringer light units (BLU); mean over the file's lines of this peptide [2]: 20.2

APPVLKRPILQSLL [Q14700 527-540]
normalised SPOT signal, Boehringer light units (BLU); mean over the file's lines of this peptide [1]: 309 | normalised SPOT signal, Boehringer light units (BLU); mean over the file's lines of this peptide [2]: 39.2

AAPPPAKPPPPPQP [O15399 900-914]
normalised SPOT signal, Boehringer light units (BLU); mean over the file's lines of this peptide [1]: 77.6 | normalised SPOT signal, Boehringer light units (BLU); mean over the file's lines of this peptide [2]: 41.3

LPHWLRRPVYSLYI [Q9UG56 133-146]
normalised SPOT signal, Boehringer light units (BLU); mean over the file's lines of this peptide [1]: 210 | normalised SPOT signal, Boehringer light units (BLU); mean over the file's lines of this peptide [2]: 49.7

LLSQLGRPFREYEL [Q9C095 450-463]
normalised SPOT signal, Boehringer light units (BLU); mean over the file's lines of this peptide [1]: 0 | normalised SPOT signal, Boehringer light units (BLU); mean over the file's lines of this peptide [2]: 204

LQAELRRPPPAPAQ [O94766 54-67]
normalised SPOT signal, Boehringer light units (BLU); mean over the file's lines of this peptide [1]: 21.1 | normalised SPOT signal, Boehringer light units (BLU); mean over the file's lines of this peptide [2]: 26.4

LPFYFKRPPINVAI [P78346 133-146]
normalised SPOT signal, Boehringer light units (BLU); mean over the file's lines of this peptide [1]: 73.2 | normalised SPOT signal, Boehringer light units (BLU); mean over the file's lines of this peptide [2]: 16.4

APQPPGRPPTPGPP [Q14957 973-987]
normalised SPOT signal, Boehringer light units (BLU); mean over the file's lines of this peptide [1]: 820 | normalised SPOT signal, Boehringer light units (BLU); mean over the file's lines of this peptide [2]: 307

LPEVPEKPPAGESV [Q9NVI4 527-541]
normalised SPOT signal, Boehringer light units (BLU); mean over the file's lines of this peptide [1]: 57.1 | normalised SPOT signal, Boehringer light units (BLU); mean over the file's lines of this peptide [2]: 39.6

LLPGPGRPPPPPTK [Q9UJJ7 274-288]
normalised SPOT signal, Boehringer light units (BLU); mean over the file's lines of this peptide [1]: 3240 | normalised SPOT signal, Boehringer light units (BLU); mean over the file's lines of this peptide [2]: 103

LLYTLRRPYFRKME [P36888 164-177]
normalised SPOT signal, Boehringer light units (BLU); mean over the file's lines of this peptide [1]: 99 | normalised SPOT signal, Boehringer light units (BLU); mean over the file's lines of this peptide [2]: 41.1

LLNTLKRPKRPPLK [Q96NX2 21-34]
normalised SPOT signal, Boehringer light units (BLU); mean over the file's lines of this peptide [1]: 85 | normalised SPOT signal, Boehringer light units (BLU); mean over the file's lines of this peptide [2]: 443

LPKHLRRPEPSKPQ [Q96M07 127-140]
normalised SPOT signal, Boehringer light units (BLU); mean over the file's lines of this peptide [1]: 12.8 | normalised SPOT signal, Boehringer light units (BLU); mean over the file's lines of this peptide [2]: 15.9

LNPDFSRPNRKYTW [P35573 181-194]
normalised SPOT signal, Boehringer light units (BLU); mean over the file's lines of this peptide [1]: 62.4 | normalised SPOT signal, Boehringer light units (BLU); mean over the file's lines of this peptide [2]: 1190

LPETFRRPQIDPAV [Q9UJL8 67-80]
normalised SPOT signal, Boehringer light units (BLU); mean over the file's lines of this peptide [1]: 17.6 | normalised SPOT signal, Boehringer light units (BLU); mean over the file's lines of this peptide [2]: 23.1
